{
  "source": "patent US20240368269A1",
  "molecular_target": "DLL3 (target in the Fab-Zap internalization assay) (UniProt Q9NYJ7)",
  "sequence (Q9NYJ7 27-618 limits assumed)": "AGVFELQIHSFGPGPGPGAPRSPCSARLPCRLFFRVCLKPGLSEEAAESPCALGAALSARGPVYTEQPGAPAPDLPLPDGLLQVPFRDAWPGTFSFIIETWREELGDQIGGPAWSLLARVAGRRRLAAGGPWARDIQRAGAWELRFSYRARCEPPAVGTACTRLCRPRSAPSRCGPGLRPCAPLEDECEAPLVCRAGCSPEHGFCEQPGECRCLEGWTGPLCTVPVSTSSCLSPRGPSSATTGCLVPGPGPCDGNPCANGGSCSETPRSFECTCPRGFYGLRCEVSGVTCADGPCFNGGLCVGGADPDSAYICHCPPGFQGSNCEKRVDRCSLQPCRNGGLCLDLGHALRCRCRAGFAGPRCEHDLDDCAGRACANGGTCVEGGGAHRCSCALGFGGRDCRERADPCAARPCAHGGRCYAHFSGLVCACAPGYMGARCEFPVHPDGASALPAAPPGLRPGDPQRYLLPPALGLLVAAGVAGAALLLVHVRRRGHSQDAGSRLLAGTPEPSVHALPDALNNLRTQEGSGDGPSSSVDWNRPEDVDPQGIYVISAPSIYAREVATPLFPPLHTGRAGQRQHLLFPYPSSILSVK",
  "assay": "cell-based or functional assay",
  "data": [
    {"substance": "Rovalpituzumab Tesirine (SC16LD6.5) (antibody)", "values": [
      {"measurement": "Percent Max Killing (Fab-Zap internalization assay, 10 ug/ml)", "value": 96, "unit": "%"}
    ]}
  ]
}
